According to US20240034787A1 (TOKYO UNIVERSITY OF PHARMACY AND LIFE SCIENCES, published 2024):

Molecular target: T1, LRP1 of rat retinal ganglion cells (rat, UniProt G3V928 20-4545)
T1 construct: Endogenous LRP1 in the rat retina (ganglion cell layer); also called LRP1 on retinal ganglion cells
Test: fluorescent immunostaining of rat retina sections after intravitreal administration (colocalisation in the ganglion cell layer)
Protocol: Frozen specimen preparation and immunofluorescence staining of rat eyeballs were performed in the following procedures. [0212] (1) Thinly sliced sections were prepared in the same manner as in the HE staining method. [0213] (2) 15% blocking buffer (in PBS, goat 15% serum, 0.05% Tween 20) was added and reacted at room temperature for one hour. [0214] (3) Washing was performed with PBS for 15 minutes. [0215] (4) A Primary antibody ([…] in 1% blocking buffer) was added and incubated overnight at 4° C. [0216] (5) Washing was performed with PBS for 15 minutes. [0217] (6) A secondary antibody (Alexa Fluor 488-bound goat anti-rabbit IgG (dilution 1:500, Invitrogen)) and Alexa Fluor 594-bound goat anti-human IgG (dilution 1:500, Invitrogen)) were added and reacted at room temperature for one hour. [0218] (7) Washing was performed with PBS containing Heochst33342 (1:2000 dilution) for one minute. [0219] (8) After encapsulation, observation was performed with a fluorescence microscope.
In the above experiment, it was observed by fluorescent immunostaining whether C2-D11 IgG binds to LRP1 of retinal ganglion cells after being administered into the vitreous body of rats. […] On the other hand, it was shown that the anti-OVA antibody was not colocalized.

T1 sequence (G3V928 20-4545 limits assumed): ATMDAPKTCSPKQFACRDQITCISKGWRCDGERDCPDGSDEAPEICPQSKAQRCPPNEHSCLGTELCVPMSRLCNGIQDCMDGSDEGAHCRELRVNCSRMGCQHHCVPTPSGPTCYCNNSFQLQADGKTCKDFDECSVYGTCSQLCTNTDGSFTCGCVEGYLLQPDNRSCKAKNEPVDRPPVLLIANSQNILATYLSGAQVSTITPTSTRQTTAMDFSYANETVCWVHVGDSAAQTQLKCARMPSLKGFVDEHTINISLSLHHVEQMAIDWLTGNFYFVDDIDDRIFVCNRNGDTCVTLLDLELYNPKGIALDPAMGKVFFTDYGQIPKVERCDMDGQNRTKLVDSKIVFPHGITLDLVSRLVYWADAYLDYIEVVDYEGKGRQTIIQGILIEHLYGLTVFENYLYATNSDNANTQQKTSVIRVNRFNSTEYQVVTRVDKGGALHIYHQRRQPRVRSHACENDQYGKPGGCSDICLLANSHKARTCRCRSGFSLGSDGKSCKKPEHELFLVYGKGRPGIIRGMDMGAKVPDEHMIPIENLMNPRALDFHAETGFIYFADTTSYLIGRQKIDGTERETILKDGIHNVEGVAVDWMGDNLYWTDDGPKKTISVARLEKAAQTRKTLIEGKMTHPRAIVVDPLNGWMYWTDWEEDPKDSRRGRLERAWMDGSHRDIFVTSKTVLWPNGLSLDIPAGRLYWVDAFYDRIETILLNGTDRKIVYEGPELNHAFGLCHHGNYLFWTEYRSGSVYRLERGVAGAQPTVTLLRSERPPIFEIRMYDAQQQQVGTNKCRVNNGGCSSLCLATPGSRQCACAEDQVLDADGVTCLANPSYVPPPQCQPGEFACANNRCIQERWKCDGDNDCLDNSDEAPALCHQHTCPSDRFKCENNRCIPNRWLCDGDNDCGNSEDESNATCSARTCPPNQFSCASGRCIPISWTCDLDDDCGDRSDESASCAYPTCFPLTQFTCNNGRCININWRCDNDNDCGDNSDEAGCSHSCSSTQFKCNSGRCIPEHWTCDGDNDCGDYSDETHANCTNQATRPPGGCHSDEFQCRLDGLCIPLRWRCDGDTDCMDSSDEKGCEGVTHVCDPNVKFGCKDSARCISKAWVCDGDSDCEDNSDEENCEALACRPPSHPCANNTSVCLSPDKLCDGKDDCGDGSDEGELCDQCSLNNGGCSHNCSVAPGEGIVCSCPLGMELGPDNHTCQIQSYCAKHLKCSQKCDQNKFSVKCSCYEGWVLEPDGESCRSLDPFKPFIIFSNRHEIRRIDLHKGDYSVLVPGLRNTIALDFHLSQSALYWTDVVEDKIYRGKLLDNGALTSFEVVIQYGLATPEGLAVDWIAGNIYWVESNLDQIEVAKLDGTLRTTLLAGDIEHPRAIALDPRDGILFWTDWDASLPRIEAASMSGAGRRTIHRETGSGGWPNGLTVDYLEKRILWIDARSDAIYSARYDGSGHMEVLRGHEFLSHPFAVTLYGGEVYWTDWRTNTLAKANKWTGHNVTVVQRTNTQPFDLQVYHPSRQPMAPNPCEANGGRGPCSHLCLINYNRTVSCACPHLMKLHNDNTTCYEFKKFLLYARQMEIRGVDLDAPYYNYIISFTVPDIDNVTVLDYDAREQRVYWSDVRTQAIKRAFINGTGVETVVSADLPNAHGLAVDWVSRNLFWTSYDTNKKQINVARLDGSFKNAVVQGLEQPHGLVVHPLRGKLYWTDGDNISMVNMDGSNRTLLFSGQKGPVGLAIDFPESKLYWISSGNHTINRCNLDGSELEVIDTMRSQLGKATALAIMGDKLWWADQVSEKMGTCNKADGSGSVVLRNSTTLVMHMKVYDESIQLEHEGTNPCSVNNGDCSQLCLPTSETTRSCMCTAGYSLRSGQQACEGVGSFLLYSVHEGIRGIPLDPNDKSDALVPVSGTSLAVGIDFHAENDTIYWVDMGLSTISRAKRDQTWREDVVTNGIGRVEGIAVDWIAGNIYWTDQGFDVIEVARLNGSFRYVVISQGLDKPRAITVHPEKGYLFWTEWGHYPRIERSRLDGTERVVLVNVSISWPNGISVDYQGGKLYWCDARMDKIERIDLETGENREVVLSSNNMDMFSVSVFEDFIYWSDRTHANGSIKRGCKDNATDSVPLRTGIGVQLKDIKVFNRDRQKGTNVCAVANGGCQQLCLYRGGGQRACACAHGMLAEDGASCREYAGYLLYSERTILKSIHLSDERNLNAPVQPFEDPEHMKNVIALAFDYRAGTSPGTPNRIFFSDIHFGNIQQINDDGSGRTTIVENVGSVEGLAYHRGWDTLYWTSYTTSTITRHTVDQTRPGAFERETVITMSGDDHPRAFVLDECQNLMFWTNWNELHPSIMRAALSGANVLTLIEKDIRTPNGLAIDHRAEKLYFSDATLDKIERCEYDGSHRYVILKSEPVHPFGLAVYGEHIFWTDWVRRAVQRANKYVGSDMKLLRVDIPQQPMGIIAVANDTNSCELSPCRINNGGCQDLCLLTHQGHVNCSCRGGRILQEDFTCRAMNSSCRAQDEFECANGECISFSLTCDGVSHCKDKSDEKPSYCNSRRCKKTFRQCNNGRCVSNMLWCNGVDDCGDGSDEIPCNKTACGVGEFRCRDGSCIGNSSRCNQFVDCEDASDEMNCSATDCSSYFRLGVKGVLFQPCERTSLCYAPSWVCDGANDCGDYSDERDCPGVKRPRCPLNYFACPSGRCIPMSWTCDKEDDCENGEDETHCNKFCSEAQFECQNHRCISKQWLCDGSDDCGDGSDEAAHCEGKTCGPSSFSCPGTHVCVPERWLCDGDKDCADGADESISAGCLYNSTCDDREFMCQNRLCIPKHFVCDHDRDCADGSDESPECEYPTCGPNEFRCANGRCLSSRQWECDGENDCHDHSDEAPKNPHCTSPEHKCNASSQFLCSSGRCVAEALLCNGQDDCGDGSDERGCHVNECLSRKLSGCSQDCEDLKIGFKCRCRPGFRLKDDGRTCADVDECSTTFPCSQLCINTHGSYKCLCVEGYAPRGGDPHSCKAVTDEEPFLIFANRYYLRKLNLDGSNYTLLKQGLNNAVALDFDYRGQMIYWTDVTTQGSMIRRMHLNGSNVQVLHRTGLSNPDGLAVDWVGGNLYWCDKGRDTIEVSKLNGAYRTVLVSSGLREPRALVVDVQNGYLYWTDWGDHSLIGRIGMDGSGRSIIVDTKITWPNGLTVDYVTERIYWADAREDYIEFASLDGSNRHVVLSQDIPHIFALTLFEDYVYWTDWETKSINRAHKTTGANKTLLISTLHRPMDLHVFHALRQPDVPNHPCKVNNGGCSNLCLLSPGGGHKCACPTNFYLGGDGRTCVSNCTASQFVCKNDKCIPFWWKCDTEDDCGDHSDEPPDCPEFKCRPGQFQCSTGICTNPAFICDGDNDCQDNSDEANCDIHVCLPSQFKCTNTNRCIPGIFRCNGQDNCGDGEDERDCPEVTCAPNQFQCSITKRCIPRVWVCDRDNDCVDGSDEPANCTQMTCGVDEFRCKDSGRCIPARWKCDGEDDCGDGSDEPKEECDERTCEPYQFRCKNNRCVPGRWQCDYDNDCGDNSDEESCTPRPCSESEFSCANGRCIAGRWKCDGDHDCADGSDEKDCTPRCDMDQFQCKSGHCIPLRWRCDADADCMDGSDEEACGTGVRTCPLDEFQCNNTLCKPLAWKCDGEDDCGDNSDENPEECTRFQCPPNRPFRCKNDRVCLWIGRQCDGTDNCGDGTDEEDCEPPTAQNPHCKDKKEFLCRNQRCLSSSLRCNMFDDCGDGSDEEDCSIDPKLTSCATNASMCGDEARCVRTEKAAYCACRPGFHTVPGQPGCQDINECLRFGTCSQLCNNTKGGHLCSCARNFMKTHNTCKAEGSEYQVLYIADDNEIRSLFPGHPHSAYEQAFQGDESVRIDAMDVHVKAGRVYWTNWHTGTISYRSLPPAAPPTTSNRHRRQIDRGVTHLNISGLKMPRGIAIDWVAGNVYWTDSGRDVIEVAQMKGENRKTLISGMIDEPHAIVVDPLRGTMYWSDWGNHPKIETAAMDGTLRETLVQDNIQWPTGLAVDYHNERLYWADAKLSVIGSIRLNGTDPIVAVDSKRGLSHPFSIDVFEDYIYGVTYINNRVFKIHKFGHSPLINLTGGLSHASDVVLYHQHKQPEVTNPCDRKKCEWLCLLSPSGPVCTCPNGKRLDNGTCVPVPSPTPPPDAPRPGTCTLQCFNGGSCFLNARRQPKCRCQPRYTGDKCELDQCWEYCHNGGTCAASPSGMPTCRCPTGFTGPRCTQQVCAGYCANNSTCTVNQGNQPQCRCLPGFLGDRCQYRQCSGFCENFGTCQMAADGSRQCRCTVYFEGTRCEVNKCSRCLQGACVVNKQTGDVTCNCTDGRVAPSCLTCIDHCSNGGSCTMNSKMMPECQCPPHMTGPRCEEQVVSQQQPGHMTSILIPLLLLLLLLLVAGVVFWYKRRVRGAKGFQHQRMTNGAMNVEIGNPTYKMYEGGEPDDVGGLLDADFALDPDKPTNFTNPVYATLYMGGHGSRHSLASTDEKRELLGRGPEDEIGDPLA

binding result: binds
B1: anti-LRP1 human IgG1 antibody prepared from C2_D11 (antibody, V domains shown)
VH: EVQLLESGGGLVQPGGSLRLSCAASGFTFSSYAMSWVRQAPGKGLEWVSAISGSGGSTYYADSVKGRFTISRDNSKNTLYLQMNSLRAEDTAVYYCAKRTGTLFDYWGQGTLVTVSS
VL: SSELTQDPAVSVALGQTVRITCQGDSLRSYYASWYQQKPGQAPVLVIYGKNNRPSGIPDRFSGSSSGNTASLTITGAQAEDEADYYCNSSQAQRNAVVFGGGTKLTVLG
notes: VH and VL of C2_D11 were put into expression vectors with a human IgG1 Fc region and expressed in HEK-293; also called C2-D11 IgG; human C2-D11 IgG
